Experimental data: publication PMC13101046 (Journal of molecular biology, 2025)
“And” between values parts separate entries of the source, which are not always exact repeats. Identical values can stand only once. One block for each molecule: values may come before it.

B2: RecC (natural protein, E. coli)
chain: MLRVYHSNRLDVLEALMEFIVERERLDDPFEPEMILVQSTGMAQWLQMTLSQKFGIAANIDFPLPASFIWDMFVRVLPEIPKESAFNKQSMSWKLMTLLPQLLEREDFTLLRHYLTDDSDKRKLFQLSSKAADLFDQYLVYRPDWLAQWETGHLVEGLGEAQAWQAPLWKALVEYTHQLGQPRWHRANLYQRFIETLESATTCPPGLPSRVFICGISALPPVYLQALQALGKHIEIHLLFTNPCRYYWGDIKDPAYLAKLLTRQRRHSFEDRELPLFRDSENAGQLFNSDGEQDVGNPLLASWGKLGRDYIYLLSDLESSQELDAFVDVTPDNLLHNIQSDILELENRAVAGVNIEEFSRSDNKRPLDPLDSSITFHVCHSPQREVEVLHDRLLAMLEEDPTLTPRDIIVMVADIDSYSPFIQAVFGSAPADRYLPYAISDRRARQSHPVLEAFISLLSLPDSRFVSEDVLALLDVPVLAARFDITEEGLRYLRQWVNESGIRWGIDDDNVRELELPATGQHTWRFGLTRMLLGYAMESAQGEWQSVLPYDESSGLIAELVGHLASLLMQLNIWRRGLAQERPLEEWLPVCRDMLNAFFLPDAETEAAMTLIEQQWQAIIAEGLGAQYGDAVPLSLLRDELAQRLDQERISQRFLAGPVNICTLMPMRSIPFKVVCLLGMNDGVYPRQLAPLGFDLMSQKPKRGDRSRRDDDRYLFLEALISAQQKLYISYIGRSIQDNSERFPSVLVQELIDYIGQSHYLPGDEALNCDESEARVKAHLTCLHTRMPFDPQNYQPGERQSYAREWLPAASQAGKAHSEFVQPLPFTLPETVPLETLQRFWAHPVRAFFQMRLQVNFRTEDSEIPDTEPFILEGLSRYQINQQLLNALVEQDDAERLFRRFRAAGDLPYGAFGEIFWETQCQEMQQLADRVIACRQPGQSMEIDLACNGVQITGWLPQVQPDGLLRWRPSLLSVAQGMQLWLEHLVYCASGGNGESRLFLRKDGEWRFPPLAAEQALHYLSQLIEGYREGMSAPLLVLPESGGAWLKTCYDAQNDAMLDDDSTLQKARTKFLQAYEGNMMVRGEGDDIWYQRLWRQLTPETMEAIVEQSQRFLLPLFRFNQS
notes: RecC, E. coli, wild type; Called wild type; source: purified as part of the RecBCD or RecB^ΔNucCD hetero-trimer

Legend:
[1] = biological target: T1, RecBΔNucCD RecB:del930-1180 (E. coli) (UniProt P08394+P07648+P04993); assay: ITC; conditions: Buffer M275-10: 20 mM MOPS pH 7.0, 275 mM NaCl, 10 mM MgCl2, 25 °C (M50-10: 50 mM NaCl); cryo-EM buffer 20 mM Tris pH 7.4, 50 mM NaCl, 4 mM MgCl2
RecBCD (E. coli) = assay: competition fluorescence titration; conditions: Buffer M275-10: 20 mM MOPS pH 7.0, 275 mM NaCl, 10 mM MgCl2, 25 °C (M50-10: 50 mM NaCl); cryo-EM buffer 20 mM Tris pH 7.4, 50 mM NaCl, 4 mM MgCl2
[2] = biological target: T1, RecBΔNucCD RecB:del930-1180 (E. coli); assay: competition fluorescence titration; conditions: Buffer M275-10: 20 mM MOPS pH 7.0, 275 mM NaCl, 10 mM MgCl2, 25 °C (M50-10: 50 mM NaCl); cryo-EM buffer 20 mM Tris pH 7.4, 50 mM NaCl, 4 mM MgCl2
RecC = biological target: B2; assay: AUC; sedimentation velocity, c(s) distribution; 200 nM protein, Buffer M50-10 (20 mM MOPS pH 7.0, 50 mM NaCl, 10 mM MgCl2), 25 °C, 42,000 rpm, absorbance at 280 nm; conditions: both partners purified
RecB = biological target: T2, RecB (E. coli, UniProt P08394 1-1180); assay: as above; conditions: both partners purified
T2 construct: RecB, E. coli, full length (134 kDa); also called full length RecB; source: purified as part of the RecBCD hetero-trimer
T2 sequence (looked up): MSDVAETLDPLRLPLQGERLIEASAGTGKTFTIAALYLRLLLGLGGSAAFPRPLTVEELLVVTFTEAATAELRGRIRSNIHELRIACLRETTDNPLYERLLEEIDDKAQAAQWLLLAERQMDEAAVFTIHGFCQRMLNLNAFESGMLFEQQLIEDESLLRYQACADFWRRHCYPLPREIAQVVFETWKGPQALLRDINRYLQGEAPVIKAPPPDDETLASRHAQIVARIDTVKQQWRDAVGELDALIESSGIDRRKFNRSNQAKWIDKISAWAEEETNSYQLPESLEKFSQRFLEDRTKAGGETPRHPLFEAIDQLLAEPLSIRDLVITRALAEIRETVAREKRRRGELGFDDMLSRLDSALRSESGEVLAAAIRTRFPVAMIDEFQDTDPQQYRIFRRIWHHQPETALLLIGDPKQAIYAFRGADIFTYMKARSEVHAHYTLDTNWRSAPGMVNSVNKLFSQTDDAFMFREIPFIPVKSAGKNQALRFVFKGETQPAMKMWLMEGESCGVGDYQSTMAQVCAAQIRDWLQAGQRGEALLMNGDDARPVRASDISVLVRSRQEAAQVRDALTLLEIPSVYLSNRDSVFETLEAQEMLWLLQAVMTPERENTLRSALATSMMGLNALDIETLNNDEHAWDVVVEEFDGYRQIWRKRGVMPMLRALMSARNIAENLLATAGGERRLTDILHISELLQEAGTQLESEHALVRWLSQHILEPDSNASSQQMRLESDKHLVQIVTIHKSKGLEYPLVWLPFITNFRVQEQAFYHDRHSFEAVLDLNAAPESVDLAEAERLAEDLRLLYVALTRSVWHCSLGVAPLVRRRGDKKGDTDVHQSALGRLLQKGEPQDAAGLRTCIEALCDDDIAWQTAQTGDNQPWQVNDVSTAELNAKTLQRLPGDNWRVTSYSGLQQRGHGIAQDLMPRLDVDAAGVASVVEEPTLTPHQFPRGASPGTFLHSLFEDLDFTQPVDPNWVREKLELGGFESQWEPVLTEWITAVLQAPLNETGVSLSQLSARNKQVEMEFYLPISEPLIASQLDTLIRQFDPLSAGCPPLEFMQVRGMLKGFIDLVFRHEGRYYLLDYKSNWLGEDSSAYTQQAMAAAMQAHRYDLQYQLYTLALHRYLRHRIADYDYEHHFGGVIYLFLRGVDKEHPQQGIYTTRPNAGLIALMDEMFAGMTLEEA

Molecule: dT6-dT6
- Ka [1]: > 1e+09 M⁻¹

Molecule: 5'-dT10
- Ka (RecBCD (E. coli)): 2.2e+08 M⁻¹
- Ka [2]: 6.4e+08 M⁻¹

Molecule: 5'-dT15
- Ka (RecBCD (E. coli)): 2.3e+08 M⁻¹
- Ka [2]: 6.5e+08 M⁻¹

Molecule: 5'-dT8
- Ka [2]: 2.3e+08 M⁻¹

Molecule: dT25-dT25
- Ka [1]: > 1e+09 M⁻¹

Molecule: 3'-dT15
- Ka (RecBCD (E. coli)): 1e+07 M⁻¹
- Ka [2]: 6e+07 M⁻¹

Molecule: blunt ended 60 bp DNA
- Ka (RecBCD (E. coli)): 1.4e+07 M⁻¹
- Ka [2]: 4.7e+07 M⁻¹

Molecule: dT4-dT4
- Ka [1]: > 1e+09 M⁻¹

Molecule: 3'-dT10
- Ka (RecBCD (E. coli)): 5e+07 M⁻¹
- Ka [2]: 5.9e+08 M⁻¹

Molecule: 3'-dT4
- Ka (RecBCD (E. coli)): 4.7e+07 M⁻¹
- Ka [2]: 3.3e+08 M⁻¹

Molecule: dT10-dT10
- Ka [1]: > 1e+09 M⁻¹

Molecule: 3'-dT6
- Ka (RecBCD (E. coli)): 1.1e+08 M⁻¹
- Ka [2]: 9.5e+08 M⁻¹

Molecule: dT30-dT30
- Ka [1]: 6.8e+08 M⁻¹ and > 1e+09 M⁻¹

Molecule: 5'-dT6
- Ka (RecBCD (E. coli)): 1.1e+08 M⁻¹
- Ka [2]: 1.4e+08 M⁻¹

Molecule: dT15-dT15
- Ka [1]: > 1e+09 M⁻¹

Molecule: dT20-dT20
- Ka [1]: > 1e+09 M⁻¹

Molecule: 3'-dT2
- Ka (RecBCD (E. coli)): 2.1e+07 M⁻¹
- Ka [2]: 9.6e+07 M⁻¹

Molecule: 3'-dT8
- Ka [2]: 7.2e+08 M⁻¹

- binding result (RecC): binds
B1: RecD (natural protein, E. coli)
chain: MKLQKQLLEAVEHKQLRPLDVQFALTVAGDEHPAVTLAAALLSHDAGEGHVCLPLSRLENNEASHPLLATCVSEIGELQNWEECLLASQAVSRGDEPTPMILCGDRLYLNRMWCNERTVARFFNEVNHAIEVDEALLAQTLDKLFPVSDEINWQKVAAAVALTRRISVISGGPGTGKTTTVAKLLAALIQMADGERCRIRLAAPTGKAAARLTESLGKALRQLPLTDEQKKRIPEDASTLHRLLGAQPGSQRLRHHAGNPLHLDVLVVDEASMIDLPMMSRLIDALPDHARVIFLGDRDQLASVEAGAVLGDICAYANAGFTAERARQLSRLTGTHVPAGTGTEAASLRDSLCLLQKSYRFGSDSGIGQLAAAINRGDKTAVKTVFQQDFTDIEKRLLQSGEDYIAMLEEALAGYGRYLDLLQARAEPDLIIQAFNEYQLLCALREGPFGVAGLNERIEQFMQQKRKIHRHPHSRWYEGRPVMIARNDSALGLFNGDIGIALDRGQGTRVWFAMPDGNIKSVQPSRLPEHETTWAMTVHKSQGSEFDHAALILPSQRTPVVTRELVYTAVTRARRRLSLYADERILSAAIATRTERRSGLAALFSSRE
notes: RecD, E. coli, wild type; Called wild type; Most of RecD has only weak density in the structures solved here; source: purified as part of the RecBCD or RecB^ΔNucCD hetero-trimer

Molecule: B2
- binding result (RecB): binds

- binding result (RecC): binds
B3: RecB^ΔNuc (RecB with the nuclease domain, residues 930-1180, deleted) (domain or fragment, E. coli, UniProt P08394 1-929, looked up)
chain: MSDVAETLDPLRLPLQGERLIEASAGTGKTFTIAALYLRLLLGLGGSAAFPRPLTVEELLVVTFTEAATAELRGRIRSNIHELRIACLRETTDNPLYERLLEEIDDKAQAAQWLLLAERQMDEAAVFTIHGFCQRMLNLNAFESGMLFEQQLIEDESLLRYQACADFWRRHCYPLPREIAQVVFETWKGPQALLRDINRYLQGEAPVIKAPPPDDETLASRHAQIVARIDTVKQQWRDAVGELDALIESSGIDRRKFNRSNQAKWIDKISAWAEEETNSYQLPESLEKFSQRFLEDRTKAGGETPRHPLFEAIDQLLAEPLSIRDLVITRALAEIRETVAREKRRRGELGFDDMLSRLDSALRSESGEVLAAAIRTRFPVAMIDEFQDTDPQQYRIFRRIWHHQPETALLLIGDPKQAIYAFRGADIFTYMKARSEVHAHYTLDTNWRSAPGMVNSVNKLFSQTDDAFMFREIPFIPVKSAGKNQALRFVFKGETQPAMKMWLMEGESCGVGDYQSTMAQVCAAQIRDWLQAGQRGEALLMNGDDARPVRASDISVLVRSRQEAAQVRDALTLLEIPSVYLSNRDSVFETLEAQEMLWLLQAVMTPERENTLRSALATSMMGLNALDIETLNNDEHAWDVVVEEFDGYRQIWRKRGVMPMLRALMSARNIAENLLATAGGERRLTDILHISELLQEAGTQLESEHALVRWLSQHILEPDSNASSQQMRLESDKHLVQIVTIHKSKGLEYPLVWLPFITNFRVQEQAFYHDRHSFEAVLDLNAAPESVDLAEAERLAEDLRLLYVALTRSVWHCSLGVAPLVRRRGDKKGDTDVHQSALGRLLQKGEPQDAAGLRTCIEALCDDDIAWQTAQTGDNQPWQVNDVSTAELNAKTLQRLPGDNWRVTSYSGLQQRGHGIAQDLMPRLDVDAA
notes: RecB, E. coli; the C-terminal nuclease domain RecB^Nuc (RecB930-1180) is deleted, the deletion starts at amino acid 930 and leaves the whole linker (870-929) intact; runs at 105 kDa; Subunit of the RecB^ΔNucCD hetero-trimer; source: purified to homogeneity as part of the RecB^ΔNucCD hetero-trimer, as described previously for RecBCD
